# According to US7749976:
# Marks after values point to notes of the source that are not given here.
# Legend:
# [1] = target: MyBP Ser(P)/Tyr(P)
# [2] = target: Casein Ser(P)
# [3] = target: MyBP Tyr(P)
# Chain of MyBP Tyr(P) (P02686 whole entry): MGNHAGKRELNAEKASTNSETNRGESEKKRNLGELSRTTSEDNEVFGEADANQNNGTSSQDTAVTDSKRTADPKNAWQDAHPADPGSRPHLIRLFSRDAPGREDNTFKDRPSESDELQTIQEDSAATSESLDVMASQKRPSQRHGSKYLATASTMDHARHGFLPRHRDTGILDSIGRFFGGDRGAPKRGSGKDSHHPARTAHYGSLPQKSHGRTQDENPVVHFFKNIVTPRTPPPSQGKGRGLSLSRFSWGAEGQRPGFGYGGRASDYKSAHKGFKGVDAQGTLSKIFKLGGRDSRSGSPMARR
# Chain of MyBP Ser(P)/Tyr(P) (P02686 whole entry): as above
protein,measurement,setting,value
GST-PLIP (recombinant murine PLIP fusion protein with N-terminal GST and 6-His tags) (protein) MAASAWLEAGLARVLFYPTLLYTVFRGRVRGPAHRDWYHRIDHTVLLGALPLKNMTRRLVLDENVRGVITMNEEYETRFLCNTSKEWKKAGVEQLRLSTVDMTGVPTLANLHKGVQFALKYQALGQCVYVHCKAGRSRSATMVAAYLIQVHNWSPEEAIEAIAKIRSHISIRPSQLEVLKEFHKEITARAAKN,Phosphatase activity (mole of phosphate released/min/mol of enzyme),[1],~0.0^b
same,Phosphatase activity (mole of phosphate released/min/mol of enzyme),[2],~0.0^b
same,Phosphatase activity (mole of phosphate released/min/mol of enzyme) (mol/(min mol)),[2],0.2
same,Phosphatase activity (mole of phosphate released/min/mol of enzyme) (mol/(min mol)),[3],0.1
TC-PTP (protein) MPTTIEREFEELDTQRRWQPLYLEIRNESHDYPHRVAKFPENRNRNRYRDVSPYDHSRVKLQNAENDYINASLVDIEEAQRSYILTQGPLPNTCCHFWLMVWQQKTKAVVMLNRIVEKESVKCAQYWPTDDQEMLFKETGFSVKLLSEDVKSYYTVHLLQLENINSGETRTISHFHYTTWPDFGVPESPASFLNFLFKVRESGSLNPDHGPAVIHCSAGIGRSGTFSLVDTCLVLMEKGDDINIKQVLLNMRKYRMGLIQTPDQLRFSYMAIIEGAKCIKGDSSIQKRWKELSKEDLSPAFDHSPNKIMTEKYN,Phosphatase activity (mole of phosphate released/min/mol of enzyme),[1],~0.0^b
same,Phosphatase activity (mole of phosphate released/min/mol of enzyme),[2],~0.0^b
same,Phosphatase activity (mole of phosphate released/min/mol of enzyme) (mol/(min mol)),[2],1440
same,Phosphatase activity (mole of phosphate released/min/mol of enzyme) (mol/(min mol)),[3],195
VHR (protein) MSGSFELSVQDLNDLLSDGSGCYSLPSQPCNEVTPRIYVGNASVAQDIPKLQKLGITHVLNAAEGRSFMHVNTNANFYKDSGITYLGIKANDTQEFNLSAYFERAADFIDQALAQKNGRVLVHCREGYSRSPTLVIAYLMMRQKMDVKSALSIVRQNREIGPNDGFLAQLCQLNDRLAKEGKLKP,Phosphatase activity (mole of phosphate released/min/mol of enzyme),[1],~0.0^b
same,Phosphatase activity (mole of phosphate released/min/mol of enzyme),[2],~0.0^b
same,Phosphatase activity (mole of phosphate released/min/mol of enzyme) (mol/(min mol)),[2],1.8
same,Phosphatase activity (mole of phosphate released/min/mol of enzyme) (mol/(min mol)),[3],0.5
